From the DeepSol protein solubility set

Test: soluble on expression in E. coli; label from the status in PepcDB or PDB records
For “RSTDTFNYATYHTLEEIYDFLDLLVAENPHLVSKIQIGNTYEGRPIYVLKFSTGGSKRPAIWIDTGIHSREWVTQASGVWFAKKITQDYGQDAAFTAILDTLDIFLEIVTNPDGFAFTHSTNRMWRKTRSHTAGSLCIGVDPNRNWDAGFGLSGASSNPCSETYHGKFANSEVEVKSIVDFVKDHGNIKAFISIHSYSQLLMYPYGYKTEPVPDQDELDQLSKAAVTALASLYGTKFNYGSIIKAIYQASGSTIDWTYSQGIKYSFTFELRDTGRYGFLLPASQIIPTAKETWLALLTIMEHTLNHP”, the “soluble on expression in E. coli” value was “soluble”.
In the case of “MGSDKIHHHHHHMKGFDAKFRDFPDYIVGITKEIWEDRGIATLHEYYAEDIVVRSPASVVTGNQGVIAATMATLAEFPDRVLLGEDVIWSGTPEDGMLSSHRIISQATHAGDGVYGAATGKRLEYRILADCHAKNNAIDDEWLIRDQTAIVTQLGWTPRDYAADLIMREGGPEACVKPLTPDTDQPGPYKGRGNDNPWGERLADVLTRIMGADMAAIPEVYDRACHLEYPGHVTAHGPAEADRFWMSLRAAFPNAAFTIDHQIGREDDHMPPRAAIRWSLHGTHEGWGGFGQPTGAEVYIVGITHAEFGQVGTAEPKLRREYTLFDETSVWKQILLHEAAK”, the “soluble on expression in E. coli” value was “not soluble”.
For “MCASFSPTLDSRSRQLLRTLISCYIQNGEPIGSKTLAQQAGLDISPATIRNILADLEELGLLNSPHTSAGRVPTAHGYRMFVDSLVQMQPPSEDDIRRLRVEMTGGGTQTLLGSASEILSAMTHFVGVVSAPRREQFVFRHIDFVPLDARQIMAILIFADNEVQNRVIEPRRVYEPGELERVSNYLNAHFIGRTLADIRTTVLCELRKAKDEMEQLLAHSLDLASQMLVPNDSEDIVVTGQTRLMALQDLSDMDRLRELFEIFASKREILQLLERTIDAPGVRIFIGEETGMVSMEDISLVTAPYAAHGQVLGVLGVIGPKRMAYDRVIPLVQVVAQVLGTALEPPTMP”, the “soluble on expression in E. coli” value was “not soluble”.
With “MITFTANIDGSQANAGTGTGSLGMGVANILFDDLSNEFSWDISWSGLTGNVTAAHFHGPALLNQNAGVQVAISTLSNPTSGSDTINTAQAADLLAGLWYINIHTDTSPSGEIRGQVQVASVPEPGTLSLLLLSMIGVFYSRSKILLEHHHHHH” the “soluble on expression in E. coli” value was “not soluble”.
With “IVMADWLKIRGTLKSWTKLWCVLKPGVLLIYKTQKNGQWVGTVLLNACEIIERPSKKDGFCFKLFHPLEQSIWAVKGPKGEAVGSITQPLPSSYLIIRATSESDGRCWMDALELALK” the “soluble on expression in E. coli” value was “soluble”.
For “MRDHRPTATDELIQASKLKQIQEHAKAILLINRQLQDILPKGLKTQVRAANVRGGNLVLEAASAALKMKVDYERLHILTQLRQNGFGHLISIEVRVNPELYRQSKITSEDARAANPRPPLSEHAAHVLLAIADQASDKVKKRLQSLARLAKANQKDD”, the “soluble on expression in E. coli” value was “not soluble”.
With “MDPLSWLYARQGRFAPGLERIRAFLARLGHPEEAYPVALVGGTNGKGTTARALAAILEEAGFRVGLYTSPHLVDFRERIQVQGRPIPEEKLLALLAELRPHAERLEASFFEVATALALLHFAREGVEFAVLEVGLGGRLDATNATEPVLSVVTNVGHDHLEVLGPTLKDVAREKAGIFRGGVPALTAARGEGLGVLRAEALGRKNPPWVLGEDFHAEGVEALPQGLAFTLRLERTGEALRLTARLLGPHQAENLALAALSGRLLGAGWEAVKRGVARAENPGRLQRLLWRGRELLLDGAHNPEGALALREALRFHGLLPAAFVLGFSRDKDHAAMAEALRGLGPVVLTRYASPRSEDPRALLPLFPGAKVVEDPLEALEEAFSREGRVVVAGSLYLVGEVLRRLEGLPAEERWQ” the “soluble on expression in E. coli” value was “soluble”.
For “MSLSQHIRKLDSDVSERLKSQACTVSLASAVREIVQNSVDAHATTIDVMIDLPNLSFAVYDDGIGLTRSDLNILATQNYTSKIRKMNDLVTMKTYGYRGDALYSISNVSNLFVCSKKKDYNSAWMRKFPSKSVMLSENTILPIDPFWKICPWSRTKSGTVVIVEDMLYNLPVRRRILKEEPPFKTFNTIKADMLQILVMHPMISLNVQYTDKLRINTEVLFRSKNITEGLTKHQQMSQVLRNVFGAEGHHHHHH”, the “soluble on expression in E. coli” value was “soluble”.
In the case of “GSHMGRSQKVSQMTKVETRLEILDVTLRDGEQTRGVSFSTSEKLNIAKFLLQKLNVDRVEIASARVSKGELETVQKIMEWAATEQLTERIEILGFVDGNKTVDWIKDSGAKVLNLLTKGSLHHLEKQLGKTPKEFFTDVSFVIEYAIKSGLKINVYLEDWSNGFRNSPDYVKSLVEHLSKEHIERIFLPDTLGVLSPEETFQGVDSLIQKYPDIHFEFHGHNDYDLSVANSLQAIRAGVKGLHASINGLGERAGNTPLEALVTTIHDKSNSKTNINEIAITEASRLVEVFSGKRISANRPIVGEDVFTQTAGVHADGDKKGNLYANPILPERFGRKR”, the “soluble on expression in E. coli” value was “soluble”.
In the case of “MDVFELTKKTLLAVISESSSSDDYLEALAEIEGLVKHEAAATSFQLMERGKVRELAVPKPEFYNKRRKFEDFQEKTVFDWKSEFNLKNAKKVERWTVEEKEKREKQRCFIEVEHYKKKEYLNFLYPGVHYCTCPYFQSTVLQKQTNWICVHILAYYFAKNFGKIERIECKSEIVGLVKKIFIRSIFLEEKK”, the “soluble on expression in E. coli” value was “not soluble”.
In the case of “MSDLTKLDWNHIRAFLKTAETGSLSAAARRLDLTQPTLSRQVAALEQDLGVMLFERIGRTLVLTDAGADLLEHTRAMGAAADRVALAASGQAQSIEGRVRITASDVMSAYVLPEALRRIRAQAPRLEIEVIAANDIRDLMRREADIAIRHVRPEQPDLIARLVREATAHFYAASGYLDRRGRPVTKDDLATHDFIAFGDVTEMLGHLTPLGLPLTRANFRLGSQSGVVAWDYVRQGFGIAPMDDGVAAATPGVERVLPQMEPLLFPVWLTAHRELHTSRRIRLVFDILAEYLTG”, the “soluble on expression in E. coli” value was “not soluble”.
With “MARNPRTTVRRILNSAPRSLLIQSVTIVALDPTDNNHGSHQPGSNGPSNSSTQADNFETETTADEERQKEDGVEDELEDEETTGFIDEDGEIRYPVDEVGNYEIDQEAETDESFYLDTQRDSSLCDERSQLCRSLSDQNLRTTFFLITTTNSKAAILRYLHFHNVSQDSILRKLLLNDSHLTLVEVCNLCAQNIELCKCEDMQEKCQLIFGDLKKWLEVILNSFANIMMKTKTTILEGYNSSSPINKGIFKKKLLSEMADNEMWMHFESSFDGIKVHKNGNQNIWPYSLLNLDLEDVHRASPQALILAALFIGFKNPTTKIHDRLTQWILLQMDEHVFFSEGVAWKADLTCANHDDPARRIVYNQCGLRSSGSCNFCLNQETECKINDEYTTLRENLTGSCPSTMNDGLRQRNQHSHFHKHVLYMHLCPHYSPKGNGICSRQNRWIFHQHLRFHLDFVRCPAKLHSVLVLRKHCIHGLYRLCIEPQSITDETLHLKQVLYHLARMTELYGSLFPLSTQWFEYFYHTIQRTLVPEIYNGLGMSIMRKMSALQEIKTEAAFRLHTNHQFRTEANLKMCYELGLLRRLKRISVVPTPPQYQQFCETGDVFLNVVYHDGIRYSNYCNKKTDDSNVTFIEYARVRFAKIIGMLLKENNTDLRFILKKYCNTNDHLIDISNKLYEEDVPQMHIQNWVDSVSKSSFGGRVTLTNTVVVVSADSIVGHAVVVKRNNNCVALPFSRRISLS” the “soluble on expression in E. coli” value was “not soluble”.
For “MGGSHHHHHHGMASAVNVYSTSVTSDNLSRHDMLAWINESLQLNLTKIEQLCSGAAYCQFMDMLFPGSIALKKVKFQAKLEHEYIQNFKILQAGFKRMGVDKIIPVDKLVKGKFQDNFEFVQWFKKFFDANYDGKDYDPVAARQGQETAVAPSLVAPALNKPKKPLTSSSAAPQRPISTQRTAAAPKAGPGVVRKNPGVGNGDDEAAELMQQVNVLKLTVEDLEKERDFYFGKLRNIELICQENEGENDPVLQRIVDILYATDEGFVIPDEGGPQEEQEEY”, the “soluble on expression in E. coli” value was “not soluble”.
In the case of “MSKCPTVRARAIDCKQGAVRAVRYNVDGNYCVTCGSDKTVKLWNPLKSSLLKTYSGTGNEVLDAASSSDNSQIAAGGADRACTVFDVETGKQLRRWRTHGAQVNAVAFNEESSVVFSGSMDCTMQAFDCRSRSEKPIQIFNESTDGILSIDVNGHEIVAGSADGNYRVYSIRDGNMTVDYMGDSVNSVSFTPDSNCLLAGVMGGIVRLIDKSSGKLLASYKGHQNTEYKLDCRVLQSIEHVASGSEDGFVYVYSLLDSHIVSKLEHPSKVIHSLTAHPKKERLMTAAGQMIYLWVAEDDAEVLGE”, the “soluble on expression in E. coli” value was “not soluble”.
For “DFEVGDKIRILATLEDGWLEGSLKGRTGIFPYRFVKLCPDTRVEETMALPQEGSLARIPETSLDCLENTLGVEEQRHETSDHEAEEPDCIISEAPTSPLGHLTSEYDTDRNSYQDEDTAGGPPRSPGVEWEMPLATDSPTSDPTEVVNGISSQPQVPFHPNLQKSQYYSTVGGSHPHSEQYPDLLPLEARTRDYASLPPKRMYSQLKTLQKPVLPLYRGSSVSASRVVKPRQSSPQLHNLASYTKKHHTSSVYSISERLEMKPGPQAQGLVMEAATHSQGDGSTDLDSKLTQQLIEFEKSLAGPGTEPDKILRHFSIMDFNSEKDIVRGSSKLITEQELPERRKALRPPPPRPCTPVSTSPHLLVDQNLKPAPPLVVRPSRPAPLPPSAQQRTNAVSPKLLSRHRPTCETLEKEGPGHMGRSLDQTSPCPLVLVRIEEMERDLDMYSRAQEELNLMLEEKQDESSRAETLEDLKFCESNIESLNMELQQLREMTLLSSQSSSLVAPSGSVSAENPEQRMLEKRAKVIEELLQTERDYIRDLEMCIERIMVPMQQAQVPNIDFEGLFGNMQMVIKVSKQLLAALEISDAVGPVFLGHRDELEGTYKIYCQNHDEAIALLEIYEKDEKIQKHLQDSLADLKSLYNEWGCTNYINLGSFLIKPVQRVMRYPLLLMELLNSTPESHPDKVPLTNAVLAVKEINVNINEYKRRKDLVLKYRKGDEDSLMEKISKLNIHSIIKKSNRVSSHLKHLTGFAPQIKDEVFEETEKNFRMQERLIKSFIRDLSLYLQHIRESACVKVVAAVSMWDVCMERGHRDLEQFERVHRYISDQLFTNFNGQKS”, the “soluble on expression in E. coli” value was “soluble”.
For “MSLNLIKYGLTTAVQADLTKENGQILGRIIGQHRDWYQVITTAGERSAQVTGKLAYEAASPAAFPAVGDWVCLSSSADNQAQIEAIAPRQSVLARGAVNRQDGQIIATNINTIFICMSLNADFNVRRLERYLTIAWDSGALPVIVLTKADLCTDLATKLRAVADVSVGVPTITCSVETGQGLDELQPYLTTGQTVAFVGSSGVGKSTLINRLLGQDILATKSIRTDDNKGRHTTTSRQLIPLPTGACVIDTPGMRELQIFMGDLNQTFAEIAALATQCKFNDCTHTSEPGCAVRAAVEVGTVTSERLQSYQKLQREMSYQGEGHHHHHH”, the “soluble on expression in E. coli” value was “soluble”.
For “MQIGANSLLQEMQSLKGEVTPSFGISPNNIVQQVNNTSGADFGQLLSQAIGNVSGLQSTSSNLATRLDMGDTTVSLSDSVIAREKASVAFEATIQVRNKLVEAYKEIMSMPV”, the “soluble on expression in E. coli” value was “not soluble”.
In the case of “MTDESDALCATEKEIMHATHRALVNSGYAELSISRISDELDKAKSTIYHYYDSKDALLLRFLRFTVDRFEATINTSIGDNPKEDLNHIISTLLPCQLPEEKRQLHSVLVTLSPQALERAVFREQFTEIDTRLATIIEKTVRRGVDADVFRDVDPTHAAEHILATIKGTMYSRLTTNREAATAAAKASLFSYIDSHLIS”, the “soluble on expression in E. coli” value was “not soluble”.
In the case of “MGSDKIHHHHHHMLPRLLDRCAGMVSHDWTALDRDLRRFLPKKSVVSKRQELLVYDCDGLTIDRHCPPLAVLPETTEEVSQILACCHRHSIPFVARGSGTGLSGGALVEQEALLVVTSRMRRILSMDLDNHTITVQPGVINSWVTRAVAGEGFYYAPDPSSQVVCSIGGNVAENSGGVHCLKYGVTSNHVLGLEVVLADGTVTLLGGGLPEHAELDLRGAFIGSEGTLGIATAITLRLLRAPQHVTVLLADFPTMESAGEAVCQVTAAGVLPAGMEIMDNFMINAVNDLFGFDEYPRDAAAVLLIELDGQAAEVTVAADQASGLCSKAGARTIRRAEEPADRALLWKGRKSAFAAVGQISPTYYVQDGVVPRSTLPRVLMAIERLSREYELPVANVFHAGDGNLHPLILYNADTPDVESRVRDLGSAILRECLDVGGSITGEHGVGADKRCYLDWMFAADDLSTMKLLRRAFDPDGRANPDKIFPTPKSCGESARRQVILTSEGLEMPSEAKAF”, the “soluble on expression in E. coli” value was “not soluble”.
